Target: the molecule itself
Test: AUC; sedimentation velocity, 48000 rpm, protein in PBS pH 7; c(s) distributions with SEDFIT; dimer to monomers

B1: human FHR-1 (natural protein, UniProt Q03591 19-330, looked up)
chain: EATFCDFPKINHGILYDEEKYKPFSQVPTGEVFYYSCEYNFVSPSKSFWTRITCTEEGWSPTPKCLRLCFFPFVENGHSESSGQTHLEGDTVQIICNTGYRLQNNENNISCVERGWSTPPKCRSTDTSCVNPPTVQNAHILSRQMSKYPSGERVRYECRSPYEMFGDEEVMCLNGNWTEPPQCKDSTGKCGPPPPIDNGDITSFPLSVYAPASSVEYQCQNLYQLEGNKRITCRNGQWSEPPKCLHPCVISREIMENYNIALRWTAKQKLYLRTGESAEFVCKRGYRLSSRSHTLRTTCWDGKLEYPTCAKR
notes: human factor H-related protein 1 (FHR-1); also called hFHR-1
For B1, which “stoichiometry N” value is on record?
Its value is 2.
